In PMC11567960:

Key:
[1] = target: cynomolgus monkey CD47 recombinant protein (cynomolgus monkey); assay: ELISA
[2] = target: human CD47 recombinant protein (human) (UniProt Q08722); assay: ELISA
Sequence of UniProt Q08722 (Q08722 19-323): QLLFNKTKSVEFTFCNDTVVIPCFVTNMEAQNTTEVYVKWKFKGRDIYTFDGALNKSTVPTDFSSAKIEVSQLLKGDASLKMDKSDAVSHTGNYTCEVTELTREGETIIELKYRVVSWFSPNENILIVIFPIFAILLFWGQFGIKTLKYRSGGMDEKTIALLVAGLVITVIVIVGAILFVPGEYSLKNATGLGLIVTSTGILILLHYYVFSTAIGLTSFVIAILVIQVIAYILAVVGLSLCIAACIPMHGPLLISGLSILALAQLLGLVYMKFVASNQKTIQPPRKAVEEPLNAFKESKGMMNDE

Substance: HX009 (bispecific antibody)
- EC50 [1]: 1.02 nM
- EC50 [2]: 0.59 nM
